Molecular target: T1, Human CEACAM5 protein (human, UniProt P06731 35-702)
T1 sequence: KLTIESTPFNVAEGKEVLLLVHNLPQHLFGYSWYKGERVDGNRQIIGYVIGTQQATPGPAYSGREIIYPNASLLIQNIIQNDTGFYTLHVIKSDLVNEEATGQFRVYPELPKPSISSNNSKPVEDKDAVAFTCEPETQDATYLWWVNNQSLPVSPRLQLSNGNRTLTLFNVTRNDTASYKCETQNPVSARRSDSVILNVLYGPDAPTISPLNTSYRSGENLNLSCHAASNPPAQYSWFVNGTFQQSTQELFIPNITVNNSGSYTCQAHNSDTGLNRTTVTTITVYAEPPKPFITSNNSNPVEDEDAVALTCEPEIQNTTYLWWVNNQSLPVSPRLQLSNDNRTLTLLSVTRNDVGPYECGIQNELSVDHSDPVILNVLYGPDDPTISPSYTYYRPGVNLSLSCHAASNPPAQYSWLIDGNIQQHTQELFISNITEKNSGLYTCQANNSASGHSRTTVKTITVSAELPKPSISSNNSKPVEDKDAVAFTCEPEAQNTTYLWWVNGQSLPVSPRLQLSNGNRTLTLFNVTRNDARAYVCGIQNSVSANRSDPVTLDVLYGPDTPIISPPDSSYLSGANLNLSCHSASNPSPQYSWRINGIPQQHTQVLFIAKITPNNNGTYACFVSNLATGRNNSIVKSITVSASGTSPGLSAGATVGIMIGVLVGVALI
Experiment: cell-based or functional assay

B1: ADC8 (an analog of labetuzumab govitecan) (antibody, human IgG1, kappa)
heavy: not shown
light: DIQLTQSPSSLSASVGDRVTITCKASQDVGTSVAWYQQKPGKAPKLLIYWTSTRHTGVPSRFSGSGSGTDFTFTISSLQPEDIATYYCQQYSLYRSFGQGTKVEIKRTVAAPSVFIFPPSDEQLKSGTASVVCLLNNFYPREAKVQWKVDNALQSGNSQESVTEQDSKDSTYSLSSTLTLSKADYEKHKVYACEVTHQGLSSPVTKSFNRGEC
modifications: purchased drug-linker on reduced interchain cysteines; purchased drug-linker on reduced interchain cysteines, DAR of 7.7 for the whole antibody
B1 was tested, and the “SPECIFICITY FACTOR (IC50 in MDA-MB-231 divided by IC50 in MKN-45)” value was 2.5 fold, the “SPECIFICITY FACTOR (IC50 in MDA-MB-231 divided by IC50 in SK-CO-1)” value was 4.8 fold and the “SPECIFICITY FACTOR (IC50 in MDA-MB-231 divided by IC50 in SNU-16)” value was 1.8 fold.

From US20250170268A1 (Merck KGaA, published 2025)
